Laboratory results from patent US20220162619.

System: T1, synthetic model peptide substrate PLVQ conjugated with 7-amino-4-methylcoumarin (AMC)
T1 sequence: PLVQ

Row | Substance | enzymatic (proteolytic) activity: hydrolysis of PLVQ-AMC, fluorescence of free AMC
1 | recombinant truncated triticain-alpha with a C-terminal polyhistidine sequence, expressed in soluble form in E. coli | significantly exceeded the activity of the truncated triticain-alpha preparation 6HIS-Triticain-α-GM, obtained in an insoluble form, as well as that of papain
2 | recombinant truncated triticain-alpha with an N-terminal polyhistidine sequence, expressed in soluble form in E. coli | significantly exceeded the activity of the truncated triticain-alpha preparation 6HIS-Triticain-α-GM, obtained in an insoluble form, as well as that of papain
